This series can be described thus: soluble on expression in E. coli; label from the status in PepcDB or PDB records.
“MITTQDKELLAKKGITEAQIAEQLACFQTGFPYLKLDAAASIEKGILAPDAEEKNAYLAAWDAYKNTDKIIVKFVPASGAASRMFKNLFEFLSAEYDKPTTKFEQAFFDGIKDFAFYDDLNVACQRTAGKDIPGLMEEGNYKAVVAALLETAGLNYGALPKGLLKFHKYPEGSRTPLEEHLAEGAMYAAGKSGKVNVHFTVSTEHRELFKKLVEEKAEAFGKRYGVDYYITFSEQKPNTDTIAADMDNQPFRDNGKLLFRPGGHGALIENLNDLDADIIFIKNIDNVVPDKLKADTVTYKKLIAGVLVSLQKKAFEYLELLDSGKYTHEQIMEILQFLQKQLFCKNPETKNLEDAELVIYLKNKLNRPMRVCGMVKNVGEPGGGPFLAYNSDGTISLQILESSQIDMNDPAKKEMFEKGTHFNPVDLVCAVRDYKGHKFDLVKYVDKATGFISYKSKNGKDLKALELPGLWNGAMSDWNTVFVEVPLTTFNPVKTVNDLLREQHQ”: the “soluble on expression in E. coli” value is “not soluble”.
Take “ASLSPQPDVSGELNTEALTCIVERLESEIIDGSWIHISYEETDLEMMPFLVAQANKKYPELNLKFVMSVHELVSSIKETRMEGVESARFLVNMGSSGIHISVVDFRVMDGKTSVILFEPAACSAFGPALLALRTKAALEREQLPDCYFAMVELDIQRSSSECGIFSLALAKKLQLEFMNLVKIHEDNICERLCGEEPFLPSDKADRYLPVSFYKHTQGAQRLNEYVE”: the “soluble on expression in E. coli” value is reported as “not soluble”.
With “MSIFNGIKEEQMDILREVGNIGAGHSASAMAQLLNRKIDMEVPFAKLLSFDELVDFFGGADVPVASIFLRMEGDLTGSMFFIMPFFQAEQFIRELIGNPDFDIEDLGEDHMSSSALHELGNILAGSYLTALADLTKLQLYPSVPEVSLDMFGAVISEGLMELSQVGEHAIVVDTSIFDQSHQQELKAHMFMLPDYDSFEKLFVALGASL” the entry was “soluble”.
With “AIASSLVYPVSQSYHYLSTSNNRLFSAVPSEEKSNKEVKGKAQETSKENTSPATLQDSFGFQLKTGTPDRMPSSFDQATGSERAELEDPDLYRNPEKYVNSRVMIAPFGTKEKPLLIPSRYDSRIIGCTGREAPNDHGVYYMTVKENHDKVCPLCGQVFRLKKVAGGEEASHHHHE”, the “soluble on expression in E. coli” value was “soluble”.
Regarding “SNAMIYPDETMLYAPVEWHDCSEGYTDIRYEKSTDGIAKITINRPQVRNAFRPLTVKEMIQALADARYDDNVGVIILTGEGDKAFCAGGDQKVRGDYGGYQDDSGVHHLNVLDFQRQIRTCPKPVVAMVAGYSIGGGHVLHMMCDLTIAAENAIFGQTGPKVGSFDGGWGASYMARIVGQKKAREIWFLCRQYDAQQALDMGLVNTVVPLADLEKETVRWCREMLQNSPMALRCLKAALNADCDGQAGLQELAGNATMLFYMTEEGQEGRNAFNQKRQPDFSKFKRNP”, the “soluble on expression in E. coli” value is “soluble”.
On to “MSLKIGPILRSNVNRSITGDFDFREADLSLIRNFPNARVSLRDITLTTAAPFEGDTLFKAREAYLVMGIGELFKGAGEPIGIRELFVSGADLRLRLDAEERPNYLVAAEDPAATGATAASDGFTFDLQGYQIADSKISYMDQSSGISFLLEDIQHTGSGDLSLAESRLETRTDARISLGMDSVQYLDRNSLQLDARIGIDLETDTYTFLENEGLINQMPLVFEGSVQLVEEGQEIDLDFRTPSSDFKNFLALIPEAYSKSLEEVRTSGQFTLEGSITGRSDDTRIPNLDIRMEAVDAAFRYPDLPKGIDDINFSARLLNTTGIAGDTYLEIPAAGFRIDQDVFNMSGNIRSLTGNPEVDAALKGTINLASLDQAYPVELAPGLSGVLRADVQTAFDMASVENKQYGNTRTSGSLQLSNLNFRADNFAEPVKIREARLRFDPVEARLESLSGSLGQSDFTLSGTVRDYLGYLLADGILKGQFSLTSNQLLVSDFMSPEDPGQAEKETGADARASGQAPDGGPAFQIPAAIDVSIRGQAASVVYDGLPLRNVSGNLQIRDQELQLRDVRSDALDGKLALNGTVATGEGLPRFNMDLGIDGFRIRETLESIELFETLAPIASIVEGKLNSRVQLSGLLNSDFSPDLMSLAGNVVAEVLASDITGTRAKVLEALDARMDFFNMEDLDLKGLKTALNFENGLVTVKPFSFTYRDMEVSVAGSHSFDQQLNYTATLQVPAKYLGSDVNRLVTELQEPGLKEGHHHHHH”, for which the “soluble on expression in E. coli” value was “not soluble”.
“MADPTFAEHVATTNSRLASLRANLIDVSTFPEACSELTKWCQDQRAFTAHFEDNLMMALEAAMDYGTRENYDYMLTHGLVGACFTHRKHLSKPAATRIGRWYEQMRRLKKNGGKRKRAPPKPKDPALQASSQPTGTLPVLTSPSCPQNGQQLPTENNNFMFSPNSSDGLVLVIFSSSINFSLKIRVNAKKRKF”: the “soluble on expression in E. coli” value is on record as “not soluble”.

The values above are taken from the DeepSol protein solubility set.
